Results as given in patent US10202593B2, “Evolved sortases and uses thereof” (President and Fellows of Harvard College, priority 2013, dated 2019).
Numbering of substitutions follows the chain as printed. Names may count otherwise. Where two headings read alike, the source gives them in different places.

B1: eSrtA(4S-5): 5mut + N98D A104V A118T F122A K134R I182V (protein)
chain: QAKPQIPKDKSKVAGYIEIPDADIKEPVYPGPATREQLDRGVSFVEENESLDDQNISITGHTAIDRPNYQFTNLRAAKKGSMVYFKVGNETRKYKMTSIRNVKPTAVEVLDEQKGKDKQLTLVTCDDYNEETGVWETRKIFVATEVK
B2: eSrtA(2A-6): round 6 consensus variant targeting LAETG; kinetics close to 2A.6A (protein)
chain: B1 chain with D39N, V45H, T59A, A63F, R75K, K79V, K103R
B3: eSrtA(4S-3): round 3 LPESG clone: eSrtA + N98S A104T A118T F122S D124G K134R K173E K177E I182V (protein)
chain: B1 chain with D39S, V45T, A63S, D65G, K114E, K118E
B4: 4S.6B: 5mut + N98D A104V A118S F122A K134P I182V E189P (protein)
chain: B1 chain with T59S, R75P, E130P
B5: eSrtA(2A-3.5) (protein)
chain: B1 chain with D39N, V45A, T59A, A63F, R75K, K103R, V109I, V123F
B6: 2A.6A: 5mut + A104H K138V K162R I182V (protein)
chain: B1 chain with D39N, V45H, T59A, A63F, R75K, K79V, K103R
B7: eSrtA(4S-3.5) (protein)
chain: B1 chain with D39N, V45T, A63F, R75K
B8: eSrtA(2A-3): round 3 LAETG clone: eSrtA + K84R F122S D124G K134R K145E K162R V168I K177R I182F (protein)
chain: QAKPQIPKDKSKVAGYIEIPDADIREPVYPGPATREQLNRGVSFAEENESLDDQNISIAGHTSIGRPNYQFTNLRAAKKGSMVYFEVGNETRKYKMTSIRNVRPTAVEILDEQKGKDRQLTLFTCDDYNEETGVWETRKIFVATEVK

How the values were obtained:
Assay type in all cases: biochemical
[1] = tested on: LPETG (Abz-LPETGK(Dnp)-CONH2); assay: In vitro sortase kinetics HPLC assay, LPETG substrate; conditions: substrate wt (LPETG)
Protocol: (§1) See below for details on sortase expression and purification, and on the synthesis of Abz-LPETGK(Dnp)-CONH2 (SEQ ID NO: 19). […] Reactions were initiated with the addition of enzyme and incubated at 22.5° C. for 3 to 20 minutes before quenching with 0.5 volumes of 1 M HCl. Five to ten nmol of peptide from the quenched reactions were injected onto an analytical reverse-phase Eclipse XDB-C18 HPLC column (4.6×150 mm, 5 μm, Agilent Technologies) and chromatographed using a gradient of 10 to 65% acetonitrile with 0.1% TFA in 0.1% aqueous TFA over 13 minutes. Retention times under these conditions for the Abz-LPETGK(Dnp)-CONH2 (SEQ ID NO: 19) substrate, the released GKDnp peptide, and the Abz-LPETGGG-COOH (SEQ ID NO: 20) product were 12.8, 10.4, and 9.1 min, respectively. To calculate the percent conversion, the ratio of the integrated areas of the Abz-LPETGGG-COOH (SEQ ID NO: 20) and Abz-LPETGK(Dnp)-CONH2 (SEQ ID NO: 19) peptide Abs220 peaks was compared to a standard curve generated by mixing the product and starting peptide in known ratios. To determine […] and Km, reaction rates were fit to the Michaelis-Menten equation using OriginPro 7.0 software. All kinetics values reported represent the average of at least three measurements. Percent conversion was also calculated by using the ratio of the integrated areas of the GK(Dnp)-CONH2 and Abz-LPETGK(Dnp)-CONH2 peptide Abs355 peaks were compared directly (Example 5). To determine kcat and Km, LPETG, reaction rates were fit to the Michaelis-Menten equation using Microsoft Excel using the Solver add-in. To determine Km,GGG and KH, reaction rates were fit to the modified Michaelis-Menten, for which KH is as defined when KH<<Km,GGG.
(§2) Assays to determine eSrtA, eSrtA(2A-9) and eSrtA(4S-9) specificity were performed by preparing 10 μM stocks of Abz-LXEXGK(Dnp) (SEQ ID NO: 75) peptides in 300 mM Tris pH 7.5, 150 mM NaCl, 5 mM CaCl2, 5% v/v DMSO, and 100 mM Gly-Gly-Gly-COOH (GGG). Reactions were performed by adding eSrtA(2A-9) to a final concentration of 450 nM, eSrtA(4S-9) to a final concentration of 115 nM or eSrtA to a final concentration of 47.5 nM and a final volume of 100 μL, then incubating at 22.5° C. for 15 minutes. Reactions were quenched by the addition of 0.2 volumes of 5 M HCl, then were injected onto an analytical reverse-phase Eclipse XDB-C18 HPLC column (4.6×150 mm, 5 μm, Agilent Technologies) and chromatographed using a gradient of 10 to 65% acetonitrile with 0.1% TFA in 0.1% aqueous TFA over 13 minutes. Retention times under these conditions for the Abz-LPETGK(Dnp)-CONH2 (SEQ ID NO: 19) substrate, the released GKDnp peptide, and the Abz-LPETGGG-COOH (SEQ ID NO: 20) product were 12.8, 10.4, and 9.1 min, respectively, while the remaining Abz-LXEXGK(Dnp)-CONH2 (SEQ ID NO: 74) substrates varied in retention time between 9 and 13 minutes. To calculate the percent conversion, the ratio of the integrated areas of the GK(Dnp)-CONH2 and Abz-LPETGK(Dnp)-CONH2 (SEQ ID NO: 19) peptide Abs355 peaks were compared directly. Subsequent determination of kcat/Km and KH were performed as described for in vitro SrtA characterization.
(§3) In each case, rate constants were determined by measuring enzyme velocity at eight different substrate concentrations by HPLC assay, then fit using nonlinear regression to the Michaelis-Menten equation, yielding kcat and Km. KH was calculated by measuring enzyme velocity at 1 mM target substrate and eight different GGG concentrations by HPLC assay, then fitting the resulting curves using nonlinear regression to the modified Michaelis-Menten equation.

[2] = tested on: LPESG (Abz-LPESGK(Dnp)-CONH2); assay: In vitro sortase kinetics HPLC assay, LPESG substrate; conditions: for kcat, 1 mM LxExG (Hz) / kHydrolysis (Hz): GGG varied; for Specificity: 4S (LPESG) over wt (LPETG); for specificity (relative cat. Efficiency, fold): ratio of kcat/Km between 4S (LPESG) and wt (LPETG) substrates; for kHydrolysis (Hz): 1 mM
Protocol: as §1, §2, §3

[3] = tested on: LAETG (Abz-LAETGK(Dnp)-CONH2); assay: In vitro sortase kinetics HPLC assay, LAETG substrate; conditions: for Specificity (relative catalytic efficiency, fold): ratio of kcat/KM between 2A (LAETG) and wt (LPETG)
Protocol: as §1, §2, §3

[4] = Example 5 variants, read-out: Avg KM
[5] = 1 mM 4S (LPESG) substrate, read-out: Km, GGG
[6] = Example 5 variants, substrate 4S (LPESG)
[7] = Example 5 variants, substrate 4S (LPESG), read-out: Avg KM
[8] = substrate 4S (LPESG), read-out: Km, LxExG
[9] = Example 5 variants, substrate 2A (LAETG)
[10] = Example 5 variants, substrate 2A (LAETG), read-out: Avg KM
[11] = GGG varied, substrate 2A (LAETG)
[12] = substrate 2A (LAETG), read-out: Km, LxExG

| Molecule | Avg kcat (Hz) ([1]; Example 5 variants) | Km [1, 4] [mM] | kcat, 10 mM GGG (Hz) [1] [Hz] | Km ([1]; read-out: Km, LxExG) [mM] | Avg kcat (Hz) [2, 6] [Hz] | Km [2, 7] [mM] | Specificity ([2]; ratio of kcat/KM) | kcat, 10 mM GGG (Hz) ([2]; substrate 4S (LPESG)) | Km [2, 8] [mM] | Avg kcat (Hz) [3, 9] [Hz] | Km [3, 10] [mM] | Specificity (relative catalytic efficiency, fold) [3] [fold] | other results |
| --- | --- | --- | --- | --- | --- | --- | --- | --- | --- | --- | --- | --- | --- |
| B1 | 0.00606 | 0.0117 | 0.006149 | 0.0122 | 0.3877 | 0.076 | 9.672 | 0.3877 | 0.076 | – | – | – | Khydrolysis ([2]; 1 mM 4S (LPESG) substrate): 190.8 µM; kcat, 1 mM LxExG (Hz) ([2]; 1 mM 4S (LPESG) substrate): 1.342 Hz; Km [2, 5]: 26.7 mM; increase in kcat/Km for LPESG as compared to LPETG ([2]; FIG. 2): ~2 fold; increased affinity (KM) for the LPESG substrate as compared to the LPETG substrate ([2]; FIG. 2): ~8 fold; KH (KH,LPESG) ([2]; LPESG substrate): 190 ± 16 µM; specificity (relative cat. Efficiency, fold) [2]: 9.999 fold; kL/KL/KH ([2]; substrate 4S (LPESG)): 2.69E+07; kHydrolysis (Hz) ([2]; substrate 4S (LPESG)): 0.009551 Hz |
| B2 | 0.1622 | 3.4 | – | – | – | – | – | – | – | 2.579 | 0.665 | 82.4 | KH ([3]; GGG concentration at which hydrolysis and transpeptidation rates are equal, 2A (LAETG) variant): 149 ± 63 µM; Avg kHydro (Hz) [3, 11]: 0.2347 Hz; Avg kcat (Hz) [3, 11]: 1.734 Hz; Km ([3]; KM for GGG, substrate 2A (LAETG), read-out: Avg KM): 1.11 mM; Avg KH ([3]; substrate 2A (LAETG)): 148.9406 µM |
| B3 | 0.007565 | 3.39 | – | – | 2.543 | 3.33 | 244.976 | – | – | – | – | – | preference for LPESG over LPETG ([2]; ratio of kcat/KM): 245 fold; reduced catalytic efficiency ([2]; round 3 clone, LPESG target): > 10 fold |
| B4 | – | – | 1.081 | 0.238 | – | – | – | 1.242 | 0.312 | – | – | – | Khydrolysis ([2]; 1 mM 4S (LPESG) substrate): 122.3 µM; kcat, 1 mM LxExG (Hz) ([2]; 1 mM 4S (LPESG) substrate): 2.132 Hz; Km [2, 5]: 15.7 mM; increased affinity (KM) for the LPESG substrate as compared to the LPETG substrate ([2]; FIG. 2): ~2 fold; specificity (relative cat. Efficiency, fold) [2]: 0.9102 fold; kL/KL/KH ([2]; substrate 4S (LPESG)): 3.38E+07; kHydrolysis (Hz) ([2]; substrate 4S (LPESG)): 0.0167 Hz |
| B5 | 1.525 | 3.75 | 1.587 | 4.11 | – | – | – | – | – | 1.14 | 6.37 | 2.252 | lower activity than that of eSrtA on its native LPETG substrate ([3]; minimal mutant, LPETG and LAETG processed): ~100 fold; kcat, 10 mM GGG (Hz) ([3]; substrate 2A (LAETG)): 1.249 Hz; Km [3, 12]: 7.16 mM |
| B6 | – | – | 0.1572 | 3.29 | – | – | – | – | – | – | – | – | Khydrolysis ([3]; 1 mM 2A (LAETG) substrate): 135.8 µM; kcat, 1 mM LxExG (Hz) ([3]; 1 mM 2A (LAETG) substrate, GGG varied): 1.714 Hz; Km ([3]; 1 mM 2A (LAETG) substrate, read-out: Km, GGG): 1.04 mM; specificity (relative cat. Efficiency, fold) ([3]; ratio of kcat/Km between 2A (LAETG) and wt (LPETG) substrates, favoured over disfavoured): 86.36 fold; kL/KL/KH ([3]; substrate 2A (LAETG)): 3.04E+07; kHydrolysis (Hz) ([3]; substrate 2A (LAETG), 1 mM, GGG varied): 0.2252 Hz; kcat, 10 mM GGG (Hz) ([3]; substrate 2A (LAETG)): 2.47 Hz; Km [3, 12]: 0.608 mM |
| B7 | 5.482 | 39.3 | – | – | 5.779 | 38.8 | 1.454 | 1.118 | 7.31 | – | – | – | lower activity than that of eSrtA on its native LPETG substrate ([2]; minimal mutant, LPETG and LPESG processed): ~100 fold |
| B8 | 2.653 | 2.1 | – | – | – | – | – | – | – | 1.117 | 1.62 | 1.436 | preference for LPETG over LAETG ([3]; ratio of kcat/KM): 1.4 fold; reduced catalytic efficiency ([3]; round 3 clone, LAETG target): > 10 fold |
